Test [1] addresses human IL-13Rα1 ectodomain, biotinylated (human) (UniProt P78552). The test can be described thus: SPR; equilibrium. The settings on record: ligand. On the technique in general: SPR reads the build-up and loss of mass on a sensor chip optically.
The target is the same in test [2]. The test can be described thus: SPR; kinetic. The settings on record: ligand.
Test [3] addresses T1, human IL-13Rα2, biotinylated (human, UniProt Q14627 27-343, biotinylated (site not stated)).
T1 chain: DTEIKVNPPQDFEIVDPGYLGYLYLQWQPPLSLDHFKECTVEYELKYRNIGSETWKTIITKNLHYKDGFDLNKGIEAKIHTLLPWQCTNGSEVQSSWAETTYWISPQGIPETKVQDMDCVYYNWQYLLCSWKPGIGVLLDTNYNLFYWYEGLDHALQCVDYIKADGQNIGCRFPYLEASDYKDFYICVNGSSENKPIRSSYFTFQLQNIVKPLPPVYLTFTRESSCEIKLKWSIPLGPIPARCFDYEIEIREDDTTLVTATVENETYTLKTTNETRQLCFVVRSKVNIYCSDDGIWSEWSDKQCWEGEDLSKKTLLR
The test can be described thus: SPR; kinetic.

Sequence of human IL-13Rα1 ectodomain, biotinylated (human) (P78552 other isoform, or with tags, fused parts or gaps): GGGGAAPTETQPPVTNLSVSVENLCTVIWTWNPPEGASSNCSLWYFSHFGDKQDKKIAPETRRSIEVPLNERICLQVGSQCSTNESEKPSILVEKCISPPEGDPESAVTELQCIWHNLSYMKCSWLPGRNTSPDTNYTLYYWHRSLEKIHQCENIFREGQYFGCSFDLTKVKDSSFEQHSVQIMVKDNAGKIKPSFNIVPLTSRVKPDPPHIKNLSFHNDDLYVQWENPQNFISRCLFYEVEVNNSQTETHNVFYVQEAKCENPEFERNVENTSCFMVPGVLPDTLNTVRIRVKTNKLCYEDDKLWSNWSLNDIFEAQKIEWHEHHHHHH

As to “IL-13 superkine D7 [L10A, V18F, R86K, D87K, K89R, L101I, K104R, R108K]”, the Kd – broadly, a measure of binding affinity in units of concentration – in test [1] was 4.1 µM.

As to “IL-13 variant B4 [R11S, V18I, R86K, D87G, T88S, K89M, L101Y, K104R, K105T]”, the Kd in test [2] came out at 18 nM.

B1: IL-13 superkine D7 [L10A, V18F, R86K, D87K, K89R, L101I, K104R, R108K] (ligand)
chain: PGPVPPSTAARELIEELFNITQNQKAPLCNGSMVWSINLTAGMYCAALESLINVSGCSAIEKTQRMLSGFCPHKVSAGQFSSLHVKKTRIEVAQFVKDLLIHLRKLFKEGQFNHHHHHH
B1 yielded a Kd in test [3] of 3 pM.

The record behind these values is patent US20200095301A1 (published 2020).
